Experimental data: US20240270871A1 (HUMMINGBIRD BIOSCIENCE PTE, published 2024)
Where two headings read alike, the source gives them in different places.

Tests used:
Assay in all cases: BLI (Octet QK384), IgG captured on anti-human Fc (AHC) biosensors, recombinant human HER3 as analyte, 1:1 global fit, averaged
recombinant human HER3 [1] = molecular target: T1, recombinant human HER3 (human, UniProt P21860 20-643, limits assumed)
Description: (§1) Biosensors were first dipped in wells containing assay buffer for 60 s to obtain baseline readings, and then IgGs (at a concentration of 12.5 nM) were captured for 120 s, followed by PBST wash for 60 s to remove any unbound antibody or non-specifically-bound protein and the second baseline was collected after IgG capture. Kinetic measurements for antigen binding were performed by dipping each of the antibody-coated biosensors into wells containing a single serial diluted concentration of recombinant human HER3 for 120 s, followed by a 120 s dissociation time by transferring the biosensors into assay buffer containing wells. AHC biosensors were regenerated for 5 s×4 times after each kinetic cycle using 10 mM glycine pH 1.7 to remove bound protein and washed with assay buffer before a new kinetic cycle. Six 1:2 serial dilutions of recombinant human HER3 (at concentrations ranging from 500 nM to 16 nM), were used to ensure an ideal concentration range of antigen, and binding signal spanning the dynamic range of the assay. Measurements for all sensors were generated in real time in parallel. Data analysis was preformed using Octet QK384 analysis 9.0 software (Pall ForteBio) according to manufacturer's recommendations for analysing a high-affinity antigen-antibody kinetics. […]

recombinant human HER3 [2] = molecular target: T1, recombinant human HER3; remark: listed apart in the source
Description: as §1

recombinant human HER3 [3] = molecular target: T1, recombinant human HER3; remark: listed apart in the source
Description: as §1

recombinant human HER3 [4] = molecular target: T1, recombinant human HER3; remark: listed apart in the source
Description: as §1

recombinant human HER3 [5] = molecular target: T1, recombinant human HER3; remark: listed apart in the source
Description: as §1

recombinant human HER3 [6] = molecular target: T1, recombinant human HER3; remark: listed apart in the source
Description: as §1

recombinant human HER3 [7] = molecular target: T1, recombinant human HER3; remark: listed apart in the source
Description: as §1

Measured: Kd

T1 sequence (P21860 20-643 limits assumed): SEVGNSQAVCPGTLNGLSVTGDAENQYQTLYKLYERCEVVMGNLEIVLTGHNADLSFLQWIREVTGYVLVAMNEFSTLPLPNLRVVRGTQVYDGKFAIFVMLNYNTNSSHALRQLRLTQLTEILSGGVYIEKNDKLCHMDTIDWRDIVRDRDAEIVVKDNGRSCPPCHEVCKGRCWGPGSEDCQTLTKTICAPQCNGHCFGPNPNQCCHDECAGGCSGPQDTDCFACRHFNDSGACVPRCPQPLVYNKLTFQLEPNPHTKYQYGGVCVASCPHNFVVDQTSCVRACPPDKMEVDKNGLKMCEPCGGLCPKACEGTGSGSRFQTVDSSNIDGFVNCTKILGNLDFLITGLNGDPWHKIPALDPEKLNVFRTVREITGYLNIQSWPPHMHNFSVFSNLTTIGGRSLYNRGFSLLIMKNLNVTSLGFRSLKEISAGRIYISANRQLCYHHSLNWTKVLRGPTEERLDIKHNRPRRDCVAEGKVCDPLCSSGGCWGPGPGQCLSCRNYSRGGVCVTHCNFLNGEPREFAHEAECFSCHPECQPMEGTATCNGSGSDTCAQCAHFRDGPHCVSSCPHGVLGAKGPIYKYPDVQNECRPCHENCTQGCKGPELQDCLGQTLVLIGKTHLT

B1: 10D1F hIgG1 (antibody, V domains shown)
VH: QVQLQESGPGLVKPSQTLSLTCTVSGYSITSGYSWHWIRQHPGKGLEWIGSIRYSGGTDYNPSLKSLVTISADTSKNQFSLKLSSVTAADTAVYYCARMTTAPWYPFDYWGQGTTVTVSS
VL: DIQMTQSPSSVSASVGDRVTITCKASQIVGSNVAWYQQKPGKAPEPLIYSASYLYSGVPSRFSGSGSGTDFTLTISSLQPEDFATYYCQQYSSHPLTFGQGTKLEIKR
notes: also called 10D1F.A; antibody product of clones 2-1.1, 2-1.2, 2-1.3, 2-1.4, 2-3.12, 2-3.13, 2-3.15
< 1 pM: all assays above
